Values joined by “and” are separate entries in the source; they are usually repeats but may differ in a detail not shown here. Identical values can stand only once.

The data set “AUC” deals with the molecule itself. Description: AUC.
The data set “STEM mass measurement” deals with the molecule itself. Kind of data set: STEM mass measurement.

B1: T2i88-8-pf self-assembling protein nanoparticle (SAPN) chain (designed binder)
chain: MGHHHHHHASWKWDGGLVPRGSWQTWNAKWDQWSNDWNAWRSDWQAWKDDWAYWTLTWKYGELYSKLAELERRLEELAKFVAAWTLKAAAVDLELAALRRRLEELARGGSGANANPNANPNANPNANP
As to B1, the “stoichiometry N” value in “AUC” is approximately 180 chains per nanoparticle; in “STEM mass measurement”, 195 peptide chains per nanoparticle and ~180 peptide chains per particle.

These data come from publication PMC4587294 (Nanomedicine, 2015).
